# Source: patent US20070172470A1, “Phosphatase regulation of nucleic acid transcription” (The Regents of the University of California, priority 2003, published 2007)
# B1: SCP1: small CTD phosphatase-1, full-length 261 aa human protein, SEQ ID NO:2 (protein, listed as Homo sapiens)
# chain: MDSSAVITQISKEEARGPLRGKGDQKSAASQKPRSRGILHSLFCCVCRDDGEALPAHSGAPLLVEENGAIPKTPVQYLLPEAKAQDSDKICVVIDLDETLVHSSFKPVNNADFIIPVEIDGVVHQVYVLKRPHVDEFLQRMGELFECVLFTASLAKYADPVADLLDKWGAFRARLFRESCVFHRGNYVKDLSRLGRDLRRVLILDNSPASYVFHPDNAVPVASWFDNMSDTELHDLLPFFEQLSRVDDVYSVLRQPRPGS
# How the values were obtained:
# [1] = format: biochemical; details: PNθP as substrate
# [2] = tested on: PPARγ receptor activity on PPARγ promoter response element; test: Luciferase reporter assay, ligand-activated PPARγ receptor; format: cell-based, human
# Description: Gal4-DNA binding domain-SCP1 fusion protein expression plasmids-were cotransfected in HEK293 cells with a Gal 4-TKLuc reporter plasmid and luciferase gene expression quantitated. In all panels, results of triplicate transfections are shown +/− SD. Data is expressed as fold-activation experimental/control). […] The indicated amounts of SCP1 or mutant SCP1 expression plasmids were cotransfected in HEK293 cells along with Gal 4-VP16 expression and Gal 4-TK-Luc reporter plasmids and luciferase activity was quantitated. […] The indicated receptor expression plasmids were cotransfected with their cognate promoter-reporter plasmids with or without SCP1 or mutant SCP1 expression plasmids. Cells were treated or untreated with receptor-specific ligands as described infra. […] The indicated concentrations of SCP1 and mutant SCP1 expression plasmids were cotransfected with LMX1 and E47 expression plasmids and the rat insulin 1 promoter-luciferase reporter gene. Luciferase activity was measured as described.
# Tissue Culture and Transfections: Human 293, COS7 and CV1 cells were grown at 37° C. in DMEM supplemented with 10% normal calf serum (BRL). Sub-confluent cells were transfected in 6 well tissue culture dishes using Effectene (Qiagen) according to the manufacturer's instructions. Reporter and activator plasmids (100 ng each) and Flag SCP1 (80 ng) or its mutant were used per well. […]
molecule,measurement,setting,value
B1,pH optimum for SCP1 phosphatase activity,[1]; GST-fusion,~5
same,divalent metal ion requirement of phosphatase activity,[1]; Ca2+ could not substitute,Mg^2+-dependent
same,ligand-activated PPARγ receptor activity,[2],inhibited
